Results on three molecules are retold here after patent publication US20200223906A1 (Adimab, published 2020).

In general, Kd refers to the free concentration of one partner at which half of the binding sites on the other are occupied at equilibrium, for simple one-to-one binding. Read a low Kd as higher affinity.

The target in experiment [1] is T1, RSV F ectodomain stabilized in the postfusion conformation (F ΔFP), subtype B (respiratory syncytial virus subtype B, UniProt P13843 26-109; P13843 147-524).
T1 construct: extracellular domain; Trimer; also called Postfusion subtype B
As to the kind of experiment: BLI (Octet), IgG on AHQ sensor, 100 nM antigen. (In general: Biolayer interferometry detects binding as a change in optical thickness at a sensor tip.)

Experiment [2] has as its target T2, RSV F ectodomain stabilized in the postfusion conformation (F ΔFP), subtype A (respiratory syncytial virus subtype A, UniProt P03420 26-109; P03420 147-524).
T2 construct: extracellular domain; Trimer; also called Postfusion subtype A
As to the kind of experiment: BLI (Octet), IgG on AHQ sensor, 100 nM antigen.

Experiment [3] addresses RSV F protein of subtype B (18537) on recombinant mKate-RSV (respiratory syncytial virus subtype B …, UniProt P13843 26-574). Put plainly: cell-based or functional assay.
Experiment [4] deals with T3, RSV F protein of subtype A (strain A2) on recombinant mKate-RSV (respiratory syncytial virus subtype A …, UniProt P03420 26-574). Put plainly: cell-based or functional assay.
The target of experiment [5] is T3, RSV F protein of subtype A (strain A2) …. Put plainly: cell-based or functional assay. The source holds these as a separate data set.
The target in experiment [6] is human metapneumovirus (HMPV) F protein on GFP-expressing hMPV recombinant virus (NL/1/00, A1 sublineage) (human metapneumovirus). As to the kind of experiment: cell-based or functional assay.

B1: ADI-19007 (antibody, V domains shown)
VH: QVQLVQSGGGLVQPGGSLRLSCAASGFTFSQSPMSWVRQAPGKGLEWVSGISTGGTNTYYADSVKGRFTISRDNSKNTLYLQMTSLRVGDTAVYYCAKESLDFGSGSYNWFDTWGQGTLVTVSS
VL: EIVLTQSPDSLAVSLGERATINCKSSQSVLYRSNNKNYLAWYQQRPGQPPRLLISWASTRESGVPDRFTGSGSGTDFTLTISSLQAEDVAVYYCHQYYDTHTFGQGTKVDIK
notes: full-length IgG
For B1, the equilibrium dissociation constant (Kd) in experiment [1] turned out to be 0.457 nM; in experiment [2], 0.969 nM. Also, in experiment [3], the “Neut IC50 subtype B” value came out at 0.37 µg/mL. Moreover, the “Neut IC50 subtype A” value in experiment [4] was determined as 0.208 µg/mL.

B2: ADI-18992 (antibody, V domains shown)
VH: QVQLVQSGAEVKKPGASVKVSCKASGYIFTGYFIHWVRQAPGQGLEWMGVINPRGGSTSYAQKFQGRVAVSRDTSTTTVYMELNSLRSEDTAVYYCARAPSHDEWVAISRNNDVVGFDAWGQGTLVTVSS
VL: QSVLTQPPSVSGAPGQRVTISCTGGSSNIGADYDVHWYQQPPGTAPKLLIFANNNRPSGVPGRFSGSKSGTSASLAITGLQAEDEADYYCQSYDSSLSAWVFGGGTKLTVL
notes: full-length IgG; also called Antibody Number 340
B2 showed a Kd in experiment [1] of 0.907 nM. Further, the “RSV-A2 IC50” value in experiment [5] is 2.5 µg/mL. Also, the “HMPV-A1 IC50” value in experiment [6] was found to be 6.1 µg/mL. Also, the “Neut IC50 subtype B” value in experiment [3] stood at 5.69 µg/mL. Also, in experiment [4], the “Neut IC50 subtype A” value came out at 2.55 µg/mL.

B3: ADI-19000 (antibody, V domains shown)
VH: EVQLVESGAEVKKPGASVKVSCKASGYTFTTYDINWVRQATGRGLEWMGWMTPDSGSTGYPQNFQGRVTMTRNTSISTAYMELSNLRSEDTAVYYCVQMDHCRSTSCSEGNWFDTWGQGTLVTVSS
VL: QPGLTQPPSVSAAPRQRVTISCSGSSSNIGTNAVNWYQQLPGKAPKLLIYSDNLMPSGVSARFSGSKSGTSASLAISGLQSEDEADYYCAAWDDSLNVWVFGGGTKLTVL
notes: full-length IgG; also called Antibody Number 348
Regarding B3, the Kd came out at 0.128 nM in experiment [1] and 0.175 nM in experiment [2]. Besides, the “Neut IC50 subtype B” value in experiment [3] was 0.129 µg/mL. In addition, the “Neut IC50 subtype A” value in experiment [4] is 0.037 µg/mL.
